B1: Coiled-coil domain-containing protein 33 (Homo sapiens), Q8N5R6-5 (parent)
chain: MGEPGPPSPPAPKAAPGLIDSFSEMNNYRRAMQKMAEDILSLRRQASILEGENRILRSRLAQQEEEEGQGKASEAQNTVSMKQKLLLSELDMKKLRDRVQHLQNELIRKNDREKELLLLYQAQQPQAALLKQYQGKLQKMKALEETVRHQEKVIEKMERVLEDRLQDRSKPPPLNRQQGKPYTGFPMLSASGLPLGSMGENLPVELYSVLLAENAKLRTELDKNRHQQAPIILQQQALPVDPGELGAGGDLTERLQETHGPGHSECTETLPAQDLLSGTSDKFNLLAKLEHAQSRILSLESQLEDSARRWGREKQDLATRLQEQEKGFRHPSNSIIIEQPVSDPPGVAPRGSGGGAGSHRTPKVTGP
partner: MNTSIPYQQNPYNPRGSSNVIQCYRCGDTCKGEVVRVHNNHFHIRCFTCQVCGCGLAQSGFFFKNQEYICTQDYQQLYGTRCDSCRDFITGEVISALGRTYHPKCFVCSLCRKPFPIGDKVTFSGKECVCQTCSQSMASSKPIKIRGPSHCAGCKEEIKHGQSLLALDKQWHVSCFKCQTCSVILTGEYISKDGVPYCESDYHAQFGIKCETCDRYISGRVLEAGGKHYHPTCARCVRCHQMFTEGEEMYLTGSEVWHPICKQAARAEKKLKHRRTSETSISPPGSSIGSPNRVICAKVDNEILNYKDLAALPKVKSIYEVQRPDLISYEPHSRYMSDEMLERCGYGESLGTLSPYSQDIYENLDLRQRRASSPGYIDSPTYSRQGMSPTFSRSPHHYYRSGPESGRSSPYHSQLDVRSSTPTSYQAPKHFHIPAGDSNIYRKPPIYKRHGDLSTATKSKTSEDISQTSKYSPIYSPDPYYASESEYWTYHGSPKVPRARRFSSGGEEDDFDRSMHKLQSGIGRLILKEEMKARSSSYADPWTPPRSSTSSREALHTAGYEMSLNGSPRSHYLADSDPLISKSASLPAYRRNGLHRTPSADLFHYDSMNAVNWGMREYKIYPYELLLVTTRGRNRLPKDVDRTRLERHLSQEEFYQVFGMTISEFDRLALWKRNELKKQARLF
B2: Centriolar satellite-associated tubulin polyglutamylase complex regulator 1 (Homo sapiens), Q9H6J7 (parent)
chain: MLSPERLALPDYEYLAQRHVLTYMEDAVCQLLENREDISQYGIARFFTEYFNSVCQGTHILFREFSFVQATPHNRVSFLRAFWRCFRTVGKNGDLLTMKEYHCLLQLLCPDFPLELTQKAARIVLMDDAMDCLMSFSDFLFAFQIQFYYSEFLDSVAAIYEDLLSGKNPNTVIVPTSSSGQHRQRPALGGAGTLEGVEASLFYQCLENLCDRHKYSCPPPALVKEALSNVQRLTFYGFLMALSKHRGINQALGALPDKGDLMHDPAMDEELERLLAQVPGLVNSVTASPEASCLPSRTPPRVGSPWRPLHHSRKVDGESDGSTEETDESET
partner: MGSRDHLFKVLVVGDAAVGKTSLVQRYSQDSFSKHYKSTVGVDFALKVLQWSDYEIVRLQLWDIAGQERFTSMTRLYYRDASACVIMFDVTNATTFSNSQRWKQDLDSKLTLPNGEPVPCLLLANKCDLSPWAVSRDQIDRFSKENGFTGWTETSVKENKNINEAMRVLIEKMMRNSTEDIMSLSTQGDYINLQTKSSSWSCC
B3: Dynein light chain 2, cytoplasmic (Homo sapiens), Q96FJ2 (parent)
chain: MSDRKAVIKNADMSEDMQQDAVDCATQAMEKYNIEKDIAAYIKKEFDKKYNPTWHCIVGRNFGSYVTHETKHFIYFYLGQVAILLFKSG
partner: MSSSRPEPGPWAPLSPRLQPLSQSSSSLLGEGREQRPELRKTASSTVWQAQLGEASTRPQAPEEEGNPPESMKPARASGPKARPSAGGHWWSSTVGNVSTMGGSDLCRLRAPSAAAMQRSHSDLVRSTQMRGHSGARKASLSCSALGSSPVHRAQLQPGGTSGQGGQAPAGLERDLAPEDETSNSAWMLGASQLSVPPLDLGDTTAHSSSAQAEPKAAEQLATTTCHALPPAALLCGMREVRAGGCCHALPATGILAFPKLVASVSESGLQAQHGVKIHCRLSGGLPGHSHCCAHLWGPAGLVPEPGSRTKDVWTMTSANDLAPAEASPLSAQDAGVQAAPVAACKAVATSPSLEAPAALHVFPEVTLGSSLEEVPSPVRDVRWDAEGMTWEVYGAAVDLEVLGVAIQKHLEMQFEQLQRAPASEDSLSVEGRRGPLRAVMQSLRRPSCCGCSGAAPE
B4: "N-acyl-aromatic-L-amino acid amidohydrolase (carboxylate-forming)" (Homo sapiens), Q96HD9 (parent)
chain: MCSLPVPREPLRRVAVTGGTHGNEMSGVYLARHWLHAPAELQRASFSAVPVLANPAATSGCRRYVDHDLNRTFTSSFLNSRPTPDDPYEVTRARELNQLLGPKASGQAFDFVLDLHNTTANMGTCLIAKSSHEVFAMHLCRHLQLQYPELSCQVFLYQRSGEESYNLDSVAKNGLGLELGPQPQGVLRADIFSRMRTLVATVLDFIELFNQGTAFPAFEMEAYRPVGVVDFPRTEAGHLAGTVHPQLQDRDFQPLQPGAPIFQMFSGEDLLYEGESTVYPVFINEAAYYEKGVAFVQTEKFTFTVPAMPALTPAPSPAS
partner: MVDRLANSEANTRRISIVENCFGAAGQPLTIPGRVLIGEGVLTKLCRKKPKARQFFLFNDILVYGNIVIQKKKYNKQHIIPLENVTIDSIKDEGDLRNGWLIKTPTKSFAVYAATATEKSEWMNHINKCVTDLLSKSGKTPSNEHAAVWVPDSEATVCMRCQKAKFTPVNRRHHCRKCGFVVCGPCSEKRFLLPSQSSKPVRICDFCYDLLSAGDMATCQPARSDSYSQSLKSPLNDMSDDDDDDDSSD

Variants of: B1
Conditions: with ablm3_human ABLIM3, O94929

Row | Variant | effect of a mutation on the interaction
1 | M25V | with no effect
2 | P203L | disrupting interaction strength
3 | G196R | with no effect

Variants of: B2
Conditions: with rab7l_human RAB29, O14966

Row | Variant | effect of a mutation on the interaction
4 | S177L | with no effect

Variants of: B3
Conditions: with grin2_human GPRIN2, O60269

Row | Variant | effect of a mutation on the interaction
5 | N33S | with no effect

Variants of: B4
Conditions: with pkhf2_human PLEKHF2, Q9H8W4

Row | Variant | effect of a mutation on the interaction
6 | R8Q | disrupting interaction strength
